Data on six molecules can be found in US20250145694A1 (GUANGDONG FEIPENG BIOLOGICAL, published 2025).

Substitutions are numbered along the chain they refer to.

Usually Kd stands for the constant that tells how readily two partners part at equilibrium. One may read the koff as the first-order rate constant of dissociation. The term kon denotes the second-order rate constant of association.

The chains are these.
B1: Anti-cTnI 8C4 recombinant antibody (WT) (antibody, mouse IgG1, kappa)
heavy: EVQMVESGGGLLKPGGSLKLSCAASGFTYSNYAMSWVRQTPEKRLEWVATISTGGSYSYYPDSVKGRFTISRDNAKNTLYLQMLSLRSEDTAMYYCARKDNYYGSTFMDYWGQGSSVTVSSAKTTPPSVYPLAPGSAAQTNSMVTLGCLVKGYFPEPVTVTWNSGSLSSGVHTFPAVLQSDLYTLSSSVTVPSSTWPSQTVTCNVAHPASSTKVDKKIVPRDCGCKPCICTVPEVSSVFIFPPKPKDVLTITLTPKVTCVVVDISKDDPEVQFSWFVDDVEVHTAQTKPREEQFNSTFRSVSELPIMHQDWLNGKEFKCRVNSAAFPAPIEKTISKTKGRPKAPQVYTIPPPKEQMAKDKVSLTCMITNFFPEDITVEWQWNGQPAENYKNTQPIMDTDGSYFVYSKLNVQKSNWEAGNTFTCSVLHEGLHNHHTEKSLSHSPG
light: DIQMTQTSSSLSASLGDRVTISCRASQDITQYLNWYQQKPDGTIKLLIYYSSRIHSGVSSRFSGSGSGTDYSLTISNLEQEDIATYFCQQGNTIPLTFDTGTKLELKRADAAPTVSIFPPSSEQLTSGGASVVCFLNNFYPKDINVKWKIDGSERQNGVLNSWTDQDSKDSTYSMSSTLTLTKDEYERHNSYTCEATHKTSTSPIVKSFNRNEC
notes: Mouse antibody expressed in CHO cells; also called CTNI 8C4 antibody
B2: Mutation 1 (antibody)
heavy: B1 heavy with T53S, K99R
light: B1 light with Q31N, S51T
B3: Mutation 2 (antibody)
heavy: B1 heavy with K99R
light: B1 light with S51T
notes: assembled FR/CDR/constant
B4: Mutation 3 (antibody)
heavy: B1 heavy with T53S
light: B1 light with Q31N
notes: assembled FR/CDR/constant
B5: Mutation 4 (antibody)
heavy: B1 heavy with T53S
light: B1 light
notes: light chain unchanged from WT; heavy chain assembled FR/CDR/constant
B6: Mutation 5 (antibody)
heavy: B1 heavy with K99R
light: B1 light
notes: as for B5

One assay deals with T1, CTNI quality control recombinant antigen (human, UniProt P19429 1-210, limits assumed).
T1 construct: Recombinant antigen produced by the applicant; also called CTNI quality control recombinant protein (antigen produced by the company); cardiac troponin I
T1 sequence (P19429 whole entry): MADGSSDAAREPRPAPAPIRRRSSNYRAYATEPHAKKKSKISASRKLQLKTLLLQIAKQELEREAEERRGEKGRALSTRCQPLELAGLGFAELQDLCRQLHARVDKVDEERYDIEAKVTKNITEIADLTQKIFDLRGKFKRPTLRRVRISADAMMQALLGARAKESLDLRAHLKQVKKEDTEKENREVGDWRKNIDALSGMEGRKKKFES
Briefly: BLI, antibody on AMC sensor, cTnI in solution. On the procedure: With an AMC sensor, the purified antibody was diluted to 10 μg/ml with PBST, and CTNI quality control recombinant protein (antigen produced by the company) was gradient diluted with PBST to 769.2 nmol/ml, 384.6 nmol/ml, 192.3 nmol/ml, 96.2 nmol/ml, 48.1 nmol/ml, 24 nmol/ml, 12 nmol/ml, and 0 nmol/ml.
In general terms: BLI is a label-free optical method that tracks binding on a fibre tip over time.
On to B1, for which the Kd is 21.6 nM, the koff was 0.000169 s⁻¹ and the kon stood at 7830 M⁻¹ s⁻¹.

With B2, the Kd came out at 7.04 nM, the koff is 0.000583 s⁻¹ and the kon is 82800 M⁻¹ s⁻¹.

In a further assay the target is T1, CTNI quality control recombinant antigen. Briefly: indirect ELISA, cTnI coated 1 ug/ml, antibody 0.051 ng/ml. On the procedure: (§1) CTNI quality control recombinant antigen was diluted to 1 μg/ml with a coating solution and coated a microplate, 100 μL per well, overnight at 4° C.; on the next day, the microplate was washed with a washing solution twice and patted dry; a blocking solution (20% of BSA+80% of PBS) was added, 120 μL per well, 37° C., 1 h, patted dry; the diluted cTnI monoclonal antibodies were added, 100 μL/well, 37° C., 30 min; the microplate was washed with a washing solution 5 times, patted dry; goat anti-mouse IgG-HRP, 100 μL per well, 37° C., 30 min; the microplate was washed with a washing solution 5 times, patted dry; a color-developing solution A (50 μL/well) was added, a color-developing solution B (50 μL/well) was added, 10 min; a stop solution was added, 50 μL/well; OD values were read on microplate reader at 450 nm (reference, 630 nm).
Turning to B1, the “OD450 (reference 630 nm)” value turned out to be 0.04 OD.

Turning to B3, the “OD450 (reference 630 nm)” value stood at 0.058 OD.

Take B4: the “OD450 (reference 630 nm)” value worked out at 0.049 OD.

With B2, the “OD450 (reference 630 nm)” value amounted to 0.088 OD.

As to B5, the “OD450 (reference 630 nm)” value stood at 0.061 OD.

In the case of B6, the “OD450 (reference 630 nm)” value came to 0.054 OD.

For another assay the target is unchanged. The experiment in a line: indirect ELISA, cTnI coated 1 ug/ml, antibody 0.152 ng/ml. On the procedure: as §1
Take B1: the “OD450 (reference 630 nm)” value turned out to be 0.053 OD.

As for B3, the “OD450 (reference 630 nm)” value turned out to be 0.072 OD.

On to B4, for which the “OD450 (reference 630 nm)” value was 0.068 OD.

As for B2, the “OD450 (reference 630 nm)” value amounted to 0.129 OD.

Regarding B5, the “OD450 (reference 630 nm)” value worked out at 0.069 OD.

With B6, the “OD450 (reference 630 nm)” value worked out at 0.072 OD.

A further assay shares this target. Briefly: indirect ELISA, cTnI coated 1 ug/ml, antibody 0.457 ng/ml. On the procedure:
as §1
A general note: In an ELISA, binding on a coated surface is turned into a signal by an enzyme label.
For the molecule B1, the “OD450 (reference 630 nm)” value came to 0.086 OD.

B3: the “OD450 (reference 630 nm)” value came to 0.248 OD.

With B4, the “OD450 (reference 630 nm)” value was 0.172 OD.

As to B2, the “OD450 (reference 630 nm)” value was 0.307 OD.

On to B5, for which the “OD450 (reference 630 nm)” value amounted to 0.098 OD.

As for B6, the “OD450 (reference 630 nm)” value is 0.098 OD.

The next assay shares this target. Briefly: indirect ELISA, cTnI coated 1 ug/ml, antibody 1.372 ng/ml. As to the method:
as §1
On to B1, for which the “OD450 (reference 630 nm)” value was determined as 0.194 OD.

In the case of B3, the “OD450 (reference 630 nm)” value was 0.728 OD.

Turning to B4, the “OD450 (reference 630 nm)” value was found to be 0.479 OD.

On to B2, for which the “OD450 (reference 630 nm)” value turned out to be 0.785 OD.

Turning to B5, the “OD450 (reference 630 nm)” value worked out at 0.208 OD.

Take B6: the “OD450 (reference 630 nm)” value is 0.214 OD.

Another assay has the same target. The experiment in a line: indirect ELISA, cTnI coated 1 ug/ml, antibody 4.115 ng/ml. As to the method: as §1
Consider B1, for which the “OD450 (reference 630 nm)” value worked out at 0.435 OD.

With B3, the “OD450 (reference 630 nm)” value was 1.44 OD.

Take B4: the “OD450 (reference 630 nm)” value was 1.04 OD.

Turning to B2, the “OD450 (reference 630 nm)” value turned out to be 1.6 OD.

Take B5: the “OD450 (reference 630 nm)” value stood at 0.456 OD.

Regarding B6, the “OD450 (reference 630 nm)” value was found to be 0.569 OD.

A further assay shares this target. The experiment in a line: indirect ELISA, cTnI coated 1 ug/ml, antibody 12.346 ng/ml. On the procedure: as §1
As to B1, the “OD450 (reference 630 nm)” value is 1.18 OD.

Regarding B3, the “OD450 (reference 630 nm)” value came to 1.95 OD.

Turning to B4, the “OD450 (reference 630 nm)” value stood at 1.78 OD.

Consider B2, for which the “OD450 (reference 630 nm)” value is 2.02 OD.

For the molecule B5, the “OD450 (reference 630 nm)” value worked out at 1.21 OD.

On to B6, for which the “OD450 (reference 630 nm)” value was found to be 1.32 OD.

For a further assay the target is unchanged. Briefly: indirect ELISA, cTnI coated 1 ug/ml, antibody 0 ng/ml (blank). On the procedure:
as §1
As for B1, the “OD450 (reference 630 nm)” value came out at 0.031 OD.

Consider B3, for which the “OD450 (reference 630 nm)” value turned out to be 0 OD.

With B4, the “OD450 (reference 630 nm)” value was 0.011 OD.

On to B2, for which the “OD450 (reference 630 nm)” value came to 0.039 OD.

As to B5, the “OD450 (reference 630 nm)” value is 0.029 OD.

Regarding B6, the “OD450 (reference 630 nm)” value is 0.03 OD.
